The values that follow come from US20220226486A1 (SYNTAB THERAPEUTICS, published 2022).

The test addresses T1, αvβ6 Integrin (human, UniProt P06756 31-1048; P18564 22-788).
T1 construct: whole, on cells; also called αvβ6 Integrin surface antigen
The test is described as follows: flow cytometry, 10 nM biotinylated binder on human tumor cell lines, Streptavidin-PerCP-Cy5.5. The procedure: The binding capability of peptides or peptidomimetics, of synthetic compounds according to the invention to different cell lines displaying particular targets was investigated by using flow cytometry. Detached cells were incubated with biotinylated peptide/peptidomimetic or biotinylated synthetic compound in blocking buffer for at least 30 min of ice. The cells were washed twice with washing buffer followed by incubation with streptavidin labeled with the Peridinin-chlorophyll protein PerCP-Cy5.5 (BD Biosciences) for 15 minutes on ice. After one additional wash step, samples were analyzed using FACS Canto (at least 10,000 cells per sample were counted) for cells which have bound the biotinylated reagent plus the streptavidin-PerCP-Cy5.5. Overlay histograms of cells incubated with peptide or control peptide were generated and the geometrical mean fluorescence of each sample was determined in FloJo. The EC50 measurements were calculated using Graph Prism software.
In general terms: A flow cytometer gives signals particle by particle.

Ends that are not written are not given here.

T1 sequence (P06756 31-1048, chain 1 of 2): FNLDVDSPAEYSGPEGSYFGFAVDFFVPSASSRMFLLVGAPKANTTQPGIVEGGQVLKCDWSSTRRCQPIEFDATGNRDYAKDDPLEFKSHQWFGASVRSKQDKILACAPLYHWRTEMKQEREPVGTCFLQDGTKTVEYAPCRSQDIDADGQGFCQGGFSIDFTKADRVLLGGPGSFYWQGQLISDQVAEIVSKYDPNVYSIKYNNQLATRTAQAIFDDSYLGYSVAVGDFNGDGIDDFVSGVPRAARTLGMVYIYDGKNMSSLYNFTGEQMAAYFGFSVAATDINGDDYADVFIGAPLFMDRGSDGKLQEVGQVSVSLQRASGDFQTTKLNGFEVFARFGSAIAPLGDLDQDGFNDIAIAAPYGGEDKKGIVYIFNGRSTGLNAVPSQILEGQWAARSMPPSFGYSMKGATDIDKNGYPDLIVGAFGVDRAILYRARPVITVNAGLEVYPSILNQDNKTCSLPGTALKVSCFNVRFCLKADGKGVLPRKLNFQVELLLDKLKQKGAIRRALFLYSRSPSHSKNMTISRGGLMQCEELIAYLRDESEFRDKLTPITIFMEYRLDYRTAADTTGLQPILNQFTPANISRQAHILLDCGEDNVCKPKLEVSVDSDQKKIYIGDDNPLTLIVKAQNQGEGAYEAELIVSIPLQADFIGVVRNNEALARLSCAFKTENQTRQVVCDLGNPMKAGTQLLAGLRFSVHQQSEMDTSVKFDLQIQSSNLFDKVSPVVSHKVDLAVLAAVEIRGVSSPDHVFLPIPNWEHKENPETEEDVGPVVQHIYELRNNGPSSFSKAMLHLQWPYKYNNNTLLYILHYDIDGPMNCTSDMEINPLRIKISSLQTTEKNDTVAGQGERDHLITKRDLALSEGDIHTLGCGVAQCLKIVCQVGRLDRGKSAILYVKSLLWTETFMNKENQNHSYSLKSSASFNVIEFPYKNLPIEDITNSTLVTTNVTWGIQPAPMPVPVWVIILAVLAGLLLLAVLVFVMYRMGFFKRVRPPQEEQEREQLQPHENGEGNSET
T1 sequence (P18564 22-788, chain 2 of 2): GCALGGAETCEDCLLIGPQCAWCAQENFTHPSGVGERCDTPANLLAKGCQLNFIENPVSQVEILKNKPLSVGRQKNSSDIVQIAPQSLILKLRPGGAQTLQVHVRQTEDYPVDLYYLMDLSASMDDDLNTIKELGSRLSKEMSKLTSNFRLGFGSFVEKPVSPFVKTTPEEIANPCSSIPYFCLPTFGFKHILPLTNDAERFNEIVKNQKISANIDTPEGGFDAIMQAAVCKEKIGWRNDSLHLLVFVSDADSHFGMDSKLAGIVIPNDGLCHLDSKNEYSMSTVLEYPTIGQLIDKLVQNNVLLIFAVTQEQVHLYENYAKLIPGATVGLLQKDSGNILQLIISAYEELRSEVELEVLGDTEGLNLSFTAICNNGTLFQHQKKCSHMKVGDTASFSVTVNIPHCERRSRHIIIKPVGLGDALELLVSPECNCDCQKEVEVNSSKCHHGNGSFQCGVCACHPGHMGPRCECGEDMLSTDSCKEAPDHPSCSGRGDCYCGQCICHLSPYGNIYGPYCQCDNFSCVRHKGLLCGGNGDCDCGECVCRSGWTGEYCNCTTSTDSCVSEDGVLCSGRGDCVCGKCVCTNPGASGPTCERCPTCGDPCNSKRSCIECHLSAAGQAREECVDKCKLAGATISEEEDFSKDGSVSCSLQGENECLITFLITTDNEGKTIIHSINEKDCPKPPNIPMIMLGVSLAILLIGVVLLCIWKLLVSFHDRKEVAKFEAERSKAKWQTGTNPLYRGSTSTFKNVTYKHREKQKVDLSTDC

B1: biotinylated peptide binder SEQ ID No 2 targeting αvβ6 Integrin (peptide)
peptide: RGDLATLRQL
modifications: also: biotinylated, site not given here
notes: Synthetic peptide, biotinylated for flow cytometry
For the molecule B1, the binding result was “binds”.
